Measurements as given in patent US20150125386A1, “HUMANIZED ANTI-CEACAM5 ANTIBODY AND USES THEREOF” (IMMUNOMEDICS, INC., priority 2013, published 2015).

Legend:
[1] = test system: Capan 1 human pancreatic carcinoma; experiment: In vivo therapy of athymic nude mice bearing Capan 1 pancreatic tumor xenografts with antibody-CL2A-SN-38 conjugates; conditions: Capan 1 s.c. xenograft, FIG. 1
Procedure: FIG. 1. In vivo therapy of athymic nude mice, bearing Capan 1 human pancreatic carcinoma, with antibody-CL2A-SN-38 conjugates.
(§1) The efficacy of drug-conjugated Class III anti-CEA antibody was investigated. Immunoconjugates comprising antibody-SN-38 conjugates were prepared as discussed in U.S. Pat. No. 7,999,083, the Figures and Examples sections of which are incorporated herein by reference. Immune-compromised athymic nude mice (female), bearing subcutaneous human pancreatic or colon tumor xenografts were treated with either specific CL2A-SN-38 conjugate or control conjugate or were left untreated. The therapeutic efficacies of the specific conjugates were observed.

[2] = compared with rituximab; cited from earlier work
[3] = test system: LS174T human colon carcinoma; experiment: In vivo therapy of athymic nude mice bearing LS174T colon carcinoma xenografts; conditions: LS174T s.c. xenograft, FIG. 2
Procedure: FIG. 2. In vivo therapy of athymic nude mice, bearing LS174T human colon carcinoma, with hMN-14-CL2A-SN-38 conjugate.
as §1

rectal carcinoma = experiment: Continuous infusion of labetuzumab-SN-38 in patient with liver metastases of rectal carcinoma (Example 8); format: in vivo, human
Procedure: The patient was previously resected for a rectal carcinoma and receives pre- and post-operative radiochemotherapy as per conventional treatment. […] They then receive a repeat continuous infusion therapy 5 weeks later, now for 3 weeks, at 1 mg/kg.

[4] = test system: metastatic colonic cancer (Stage IV); experiment: Therapy of a patient with advanced colonic cancer with IMMU-130 (Example 5); format: in vivo, human
Procedure: This patient is a person initially diagnosed with metastatic colonic cancer (Stage IV). […] Their baseline CEA titer just before this therapy is 15 ng/mL. […] The patient continues their investigational therapy.

[5] = test system: stage-IV metastatic colonic cancer; experiment: Therapy of advanced colon cancer patient refractory to prior chemo-immunotherapy with IMMU-130 (Example 4); format: in vivo, human
Procedure: Thereafter, they were given courses of cetuximab, either alone or combined with FOLFIRI (leucovorin, 5-flurouracil, irinotecan) chemotherapy during the next year or more. […] The index lesions chosen by the radiologist for measuring tumor size change by computed tomography were the mid-lobe of the right lung and the liver metastases, both totaling 91 mm as the sum of their longest diameters at the baseline prior to IMMU-130 (anti-CEACAM5-SN-38) therapy.
This patient received doses of 16 mg/kg of IMMU-130 by slow IV infusion every other week for a total of 17 treatment doses.

gastric adenocarcinoma = experiment: Gastric cancer patient with stage IV metastatic disease treated with IMMU-130 (Example 6); format: in vivo, human
Procedure: The patient is a person who sought medical attention because of gastric discomfort and pain related to eating for about 6 years, and with weight loss during the past 12 months. […] The patient has their gastric tumor resected, and then has baseline CT measurements of their metastatic tumors.
The patient is then given experimental therapy with IMMU-130 (anti-CEACAM5-SN-38) on a weekly schedule of 8 mg/kg. […] The patient then undergoes a CT study to measure their metastatic tumor sizes and to view the original area of gastric resection.

[6] = test system: advanced metastatic colon cancer; experiment: Therapy of advanced metastatic colon cancer with anti-CEACAM5 immunoconjugate (Example 9); format: in vivo, human; conditions: 12 mg/kg every other week, irinotecan-unresponsive
Procedure: The patient is a person who fails prior therapies for metastatic colon cancer. The first line of therapy is FOLFIRINOX+AVASTIN® (built up in a stepwise manner) starting with IROX (Irinotecan+Oxaliplatin) in the first cycle. […] This is followed by surgery to remove tumor tissue. […] This leads to the initiation of the second line regimen (FOLFIRI+Cetuximab). […] Then RF ablation of liver metastases is performed, followed by continuation of adjuvant chemotherapy with FOLFIRINOX+Cetuximab, followed by maintenance Cetuximab for approximately one year. […] This leads to a wedge resection of the lung nodules. Subsequently FOLFIRI+Cetuximab is restarted and continued. Later CT scans show both lung and liver metastases.
At the time of administration of the hMN-14-SN-38 immunoconjugate, the patient has advanced metastatic colon cancer, with metastases of both lung and liver, which is unresponsive to irinotecan (camptothecin). The hMN-14-SN-38 immunoconjugate is administered at a dosage of 12 mg/kg, which is repeated every other week.
The effect of the antibody moiety in improved targeting of the camptothecin accounts for the efficacy of the SN-38 moiety in the cancer that had been previously resistant to unconjugated irinotecan.

[7] = test system: GW-39 human colonic tumor; experiment: In vivo therapy of lung metastases of GW-39 human colonic tumors in nude mice; conditions: 250 μg, q4d×8, therapy initiated 14 days after i.v. tumor injection
Procedure: FIG. 3. Survival curves of hMN14-CL-SN-38 treated mice bearing GW-39 lung metastatic disease.
Alternative immunoconjugates, comprising different linkers between the antibody and the SN-38, were prepared as disclosed in U.S. Pat. No. 7,591,994, the Figures and Examples section of which are incorporated herein by reference. A lung metastatic model of colonic carcinoma was established in nude mice by i.v. injection of GW-39 human colonic tumor suspension, and therapy was initiated 14 days later. Specific anti-CEACAM5 antibody conjugates, hMN14-CL1-SN-38 and hMN14-CL2-SN-38, as well as nontargeting anti-CD22 antibody control conjugates, hLL2-CL1-SN-38 and hLL2-CL2-SN-38 and equidose mixtures of hMN14 and SN-38 were injected at a dose schedule of q4d×8, using different doses. […] The dose-responsiveness of therapeutic effect of conjugated antibody was also observed.

[8] = test system: LS174T human colon adenocarcinoma; experiment: Biodistribution of 131I-labelled humanized MN-14 IgG in nude mice bearing human colon cancer; format: in vivo
Procedure: The biodistribution of labeled humanized MN-14 IgG in nude mice bearing human colon cancer was determined. For radiolocalization studies, at 4-5 weeks female athymic mice (nu/nu, Harlan, Indianapolis, Ind.) were given s.c. 0.2 ml of a 10% suspension of LS174T human colon adenocarcinoma prepared from a xenograft serially propagated in an athymic mouse (Sharkey et al., Cancer Res., 50: 828-34 (1990)). After waiting 2 weeks for tumor development, the mice were injected i.v. with 20 μCi (about 2 μg) of ^131I-labelled humanized MN-14 antibodies. Groups of 4-5 mice were sacrificed at intervals thereafter, and radioactivity localized in tissues. […] Tumor:nontumor ratios were excellent.

metastatic colon cancer = experiment: Treatment of metastatic colon cancer with P2PDox conjugate of Class III anti-CEA antibody (Example 11); format: in vivo, human; conditions: 8 weeks from treatment begin
Procedure: A prodrug form of 2-pyrrolinodoxorubicin, referred to herein as “P2PDox”, is prepared and conjugated to the hMN-14 antibody as disclosed in U.S. patent application Ser. No. 14/175,089, the Figures and Examples sections of which are incorporated herein by reference.
A person with metastatic colon cancer (3-5 cm diameters) to their left and right liver lobes, as well as a 5 cm metastasis to their right lung, and an elevated blood CEA value of 130 ng/mL, is treated with a 150 mg dose of hMN-14 Class III anti-CEA antibody conjugated to P2PDox at 4 drug molecules per IgG, administered by slow intravenous infusion every other week for 4 doses. […] At the same time, their blood CEA titer is reduced to 30 ng/mL. Repeated courses of therapy continue as their neutropenia normalizes.

[9] = 131I-labelled, i.v., nude mice bearing LS174T

hRS7-CL2A-SN-38
therapeutic efficacy [1]: better efficacies than control hA20-CL2A-SN-38 conjugate

veltuzumab: humanized IgG1 antibody against CD20
immunogenicity in subjects [2]: less immunogenic in subjects than rituximab

IMMU-130
therapeutic efficacy [3]: more efficacious than non-treatment
therapeutic efficacy [1]: better efficacies than control hA20-CL2A-SN-38 conjugate
liver metastases by CT (rectal carcinoma; continuous infusion 2 mg/kg over 17 days, then 1 mg/kg for 3 weeks, three weeks later): 1 of the liver metastases has disappeared
blood CEA titer (rectal carcinoma; three weeks after second infusion, 6.3 ng/mL before): 2.4 ng/mL
nausea and vomiting (rectal carcinoma; while under therapy): grade 2
neutropenia (rectal carcinoma; while under therapy): grade 2
tolerability ([4]; 6 mg/kg twice weekly for 2 weeks, one week rest, more than 20 doses): tolerated very well, without any major hematological or non-hematological toxicities
shrinkage of the index tumor lesions ([4]; 8-week evaluation): 21%
ascites and pleural effusion ([4]; 13 weeks): both decrease
shrinkage of the index tumor lesions ([4]; 13 weeks): 27%
plasma CEA titer ([4]; within 2 months of therapy, baseline 15 ng/mL): 1.3 ng/mL
side effects (nausea, diarrhea, fatigue) ([5]; 16 mg/kg IV every other week, after the first treatment and treatments 4 and 5): grade 1 nausea, diarrhea and fatigue
duration of fatigue after the first infusion ([5]; 16 mg/kg every other week): 2 weeks
duration of nausea, diarrhea and occasional vomiting ([5]; 16 mg/kg every other week): 2 to 3 days
alopecia ([5]; 16 mg/kg every other week, after treatment 3): grade 2
change of sum of index lesions (CT) from baseline ([5]; after 4 treatments, 16 mg/kg every other week): 28.6%
reduction of sum of index lesions (CT) from baseline ([5]; after 8 treatments): 40.6%
response according to RECIST criteria ([5]; after 8 treatments): partial remission
anti-labetuzumab antibody in blood ([5]; after 16 doses): none was detected
plasma CEA titer ([5]; after the third therapy dose, baseline 12.6 ng/mL): 2.1 ng/mL
index lesions less than baseline (CT) ([5]; another 2 months after the 8-treatment evaluation): 31.9%
diarrhea (gastric adenocarcinoma; 8 mg/kg weekly, after 3 weeks): grade 1
neutropenia (gastric adenocarcinoma; 8 mg/kg weekly, after 3 weeks): grade 2
decrease of the sum of the metastatic lesions (CT, RECIST) vs. baseline (gastric adenocarcinoma; 8 mg/kg weekly, first CT study on therapy): 23%
decrease of the sum of all metastatic lesions (CT) (gastric adenocarcinoma; after a total of 13 infusions): 41%
response by RECIST (gastric adenocarcinoma; after a total of 13 infusions): partial response
CEA titer (gastric adenocarcinoma; at first CT study, pre-IMMU-130 baseline 14.5 ng/mL): 7.2 ng/mL
blood CEA (gastric adenocarcinoma; last measurement, after maintenance therapy every third week): 4.8 ng/mL
response by RECIST criteria [6]: partial response

hLL2-CL2-SN-38: nontargeting anti-CD22 antibody control conjugate
median survival [7]: 77 days

hLL2-CL1-SN-38: nontargeting anti-CD22 antibody control conjugate
median survival [7]: 56 days

hMN-14: humanized Class III anti-CEA (anti-CEACAM5) antibody; heavy and light chains SEQ ID NO:1 and SEQ ID NO:2
time of maximum tumor accretion [8, 9]: ≤ 2 days
tumor accretion of the antibody [8, 9]: excellent tumor accretion
Tumor:nontumor ratios ([8]; 131I-labelled, nude mice bearing LS174T): excellent
uptake by the spleen ([8]; compared with mMN-14): higher uptake of hMN-14 by the spleen than there was of mMN-14
blood clearance ([8]; compared with parental mMN-14): more rapid than the parental mMN-14 antibody

hMN-14 Class III anti-CEA antibody conjugated to P2PDox
reduction of the total mean diameters of the 3 target lesions (CT) (metastatic colon cancer; 150 mg every other week for 4 doses): 25%
response by RECIST1.1 criteria (metastatic colon cancer): good stable disease response
blood CEA titer (metastatic colon cancer; 130 ng/mL before): 30 ng/mL
